Experimental data as given in the RNAGym collection of RNA variant scans (doi:10.1093/molbev/msab373).

B1: Azoarcus group I ribozyme (parent)
chain: GUGCCUUGCGCCGGGAAACCACGCAAGGGAUGGUGUCAAAUUCGGCGAAACCUAAGCGCCCGCCCGGGCGUAUGGCAACGCCGAGCCAAGCUUCGGCGCCUGCGCCGAUGAAGGUGUAGAGACUAGACGGCACCCACCUAAGGCAAACGCUAUGGUGAAGGCAUAGUCCAGGGAGUGGCGAAAGUCACACAAACCGG

Variants of: B1
Experiment: reverse-splicing fitness (ratio to wild type); higher = more active; in vitro selection; Mg2+ level not given
Summary of the method: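 An in vitro group I ribozyme library with randomized positions was T7-transcribed and gel-purified. In triplicate, 10 pmol RNA in EPPS pH 7.5 was reacted with 50 pmoles of a 30-nt RNA substrate for 1 h at 37 °C across several added MgCl2 levels (1–48 mM), then stopped with EDTA. Products were reverse transcribed from a substrate-complementary primer, PCR-amplified and sequenced (HiSeq 4000). Fitness is a variant's read proportion after selection over that before, normalised to wild type.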

Row | Variant | reverse-splicing fitness
1 | C82A A120G A145U C150G C169G U176G | 0.00378
2 | C82A A120G A145U C150G C169U | 0.00862
3 | C82A A120G A145U C150G C169U U176A | 0.0124
4 | C82A A120G A145U C150G C169U U176C | 0.0127
5 | C82A A120G A145U C150G C169U U176G | 0.00511
6 | C82A A120G A145U C150G U176A | 0.00629
7 | C82A A120G A145U C150G U176C | 0.00721
8 | C82A A120G A145U C150G U176G | 0.00365
9 | C82A A120G A145U C150U | 0.0167
10 | C82A A120G A145U C150U C169A | 0.013
11 | C82A A120G A145U C150U C169A U176A | 0.013
12 | C82A A120G A145U C150U C169A U176C | 0.0113
13 | C82A A120G A145U C150U C169A U176G | 0.00418
14 | C82A A120G A145U C150U C169G | 0.0173
15 | C82A A120G A145U C150U C169G U176A | 0.0114
16 | C82A A120G A145U C150U C169G U176C | 0.0154
17 | C82A A120G A145U C150U C169G U176G | 0.00454
18 | C82A A120G A145U C150U C169U | 0.0133
19 | C82A A120G A145U C150U C169U U176A | 0.0201
20 | C82A A120G A145U C150U C169U U176C | 0.0174
21 | C82A A120G A145U C150U C169U U176G | 0.00449

Row | Variant | reverse-splicing fitness
22 | C82A A120G A145U C150U U176A | 0.0108
23 | C82A A120G A145U C150U U176C | 0.0158
24 | C82A A120G A145U C150U U176G | 0.00531
25 | C82A A120G A145U C169A | 0.0137
26 | C82A A120G A145U C169A U176A | 0.0104
27 | C82A A120G A145U C169A U176C | 0.00947
28 | C82A A120G A145U C169A U176G | 0.00321
29 | C82A A120G A145U C169G | 0.0204
30 | C82A A120G A145U C169G U176A | 0.0118
31 | C82A A120G A145U C169G U176C | 0.0144
32 | C82A A120G A145U C169G U176G | 0.00322
33 | C82A A120G A145U C169U | 0.0145
34 | C82A A120G A145U C169U U176A | 0.02
35 | C82A A120G A145U C169U U176C | 0.0169
36 | C82A A120G A145U C169U U176G | 0.00329
37 | C82A A120G A145U U176A | 0.0131
38 | C82A A120G A145U U176C | 0.0146
39 | C82A A120G A145U U176G | 0.00426
40 | C82A A120G C150A | 0.0107
41 | C82A A120G C150A C169A | 0.011
42 | C82A A120G C150A C169A U176A | 0.0184

Row | Variant | reverse-splicing fitness
43 | C82A A120G C150A C169A U176C | 0.0216
44 | C82A A120G C150A C169A U176G | 0.00586
45 | C82A A120G C150A C169G | 0.0102
46 | C82A A120G C150A C169G U176A | 0.0195
47 | C82A A120G C150A C169G U176C | 0.0267
48 | C82A A120G C150A C169G U176G | 0.00524
49 | C82A A120G C150A C169U | 0.0102
50 | C82A A120G C150A C169U U176A | 0.0218
51 | C82A A120G C150A C169U U176C | 0.0215
52 | C82A A120G C150A C169U U176G | 0.00815
53 | C82A A120G C150A U176A | 0.0118
54 | C82A A120G C150A U176C | 0.0171
55 | C82A A120G C150A U176G | 0.00837
56 | C82A A120G C150G | 0.00747
57 | C82A A120G C150G C169A | 0.00866
58 | C82A A120G C150G C169A U176A | 0.0116
59 | C82A A120G C150G C169A U176C | 0.0109
60 | C82A A120G C150G C169A U176G | 0.00619
61 | C82A A120G C150G C169G | 0.00786
62 | C82A A120G C150G C169G U176A | 0.00669
63 | C82A A120G C150G C169G U176C | 0.00462

Row | Variant | reverse-splicing fitness
64 | C82A A120G C150G C169G U176G | 0.00432
65 | C82A A120G C150G C169U | 0.0095
66 | C82A A120G C150G C169U U176A | 0.0119
67 | C82A A120G C150G C169U U176C | 0.0133
68 | C82A A120G C150G C169U U176G | 0.00654
69 | C82A A120G C150G U176A | 0.00568
70 | C82A A120G C150G U176C | 0.00829
71 | C82A A120G C150G U176G | 0.00336
72 | C82A A120G C150U | 0.0158
73 | C82A A120G C150U C169A | 0.0136
74 | C82A A120G C150U C169A U176A | 0.0169
75 | C82A A120G C150U C169A U176C | 0.0163
76 | C82A A120G C150U C169A U176G | 0.00471
77 | C82A A120G C150U C169G | 0.0157
78 | C82A A120G C150U C169G U176A | 0.0162
79 | C82A A120G C150U C169G U176C | 0.0193
80 | C82A A120G C150U C169G U176G | 0.00468
81 | C82A A120G C150U C169U | 0.0111
82 | C82A A120G C150U C169U U176A | 0.0231
83 | C82A A120G C150U C169U U176C | 0.0192
84 | C82A A120G C150U C169U U176G | 0.0068
